Laboratory results reported in patent EP4778941A1 (Jiangsu Hengrui Pharmaceuticals Co., Ltd., dated 2025).

Experiments:
[1] = molecular target: T1, Human HER3 protein on the cell surface (human, UniProt P21860 20-1342); assay: FACS on MDA-MB-453 cells (HER3 single-positive)
T1 construct: whole, on cells; also called HER3 single-positive cells (MDA-MB-453)

[2] = molecular target: T1, Human HER3 protein on the cell surface; assay: cell-based or functional assay
[3] = molecular target: Human HER3 and MET proteins together on HER3/MET double-positive cells (human, UniProt P21860 20-1342; P08581 25-1390); assay: cell-based or functional assay
[4] = molecular target: T2, His-tagged human HER3 antigen (human, UniProt P21860 20-643); assay: SPR, Biacore 8K; antibody captured, His-tagged human HER3 antigen 6.25-400 nM as analyte; 1:1 Langmuir
T2 construct: Soluble antigen used as analyte in SPR; not shown: His tag

[5] = molecular target: Human MET protein on the cell surface (human, UniProt P08581 25-1390); assay: cell-based or functional assay
Human MET protein on the cell surface, sequence (P08581 25-1390): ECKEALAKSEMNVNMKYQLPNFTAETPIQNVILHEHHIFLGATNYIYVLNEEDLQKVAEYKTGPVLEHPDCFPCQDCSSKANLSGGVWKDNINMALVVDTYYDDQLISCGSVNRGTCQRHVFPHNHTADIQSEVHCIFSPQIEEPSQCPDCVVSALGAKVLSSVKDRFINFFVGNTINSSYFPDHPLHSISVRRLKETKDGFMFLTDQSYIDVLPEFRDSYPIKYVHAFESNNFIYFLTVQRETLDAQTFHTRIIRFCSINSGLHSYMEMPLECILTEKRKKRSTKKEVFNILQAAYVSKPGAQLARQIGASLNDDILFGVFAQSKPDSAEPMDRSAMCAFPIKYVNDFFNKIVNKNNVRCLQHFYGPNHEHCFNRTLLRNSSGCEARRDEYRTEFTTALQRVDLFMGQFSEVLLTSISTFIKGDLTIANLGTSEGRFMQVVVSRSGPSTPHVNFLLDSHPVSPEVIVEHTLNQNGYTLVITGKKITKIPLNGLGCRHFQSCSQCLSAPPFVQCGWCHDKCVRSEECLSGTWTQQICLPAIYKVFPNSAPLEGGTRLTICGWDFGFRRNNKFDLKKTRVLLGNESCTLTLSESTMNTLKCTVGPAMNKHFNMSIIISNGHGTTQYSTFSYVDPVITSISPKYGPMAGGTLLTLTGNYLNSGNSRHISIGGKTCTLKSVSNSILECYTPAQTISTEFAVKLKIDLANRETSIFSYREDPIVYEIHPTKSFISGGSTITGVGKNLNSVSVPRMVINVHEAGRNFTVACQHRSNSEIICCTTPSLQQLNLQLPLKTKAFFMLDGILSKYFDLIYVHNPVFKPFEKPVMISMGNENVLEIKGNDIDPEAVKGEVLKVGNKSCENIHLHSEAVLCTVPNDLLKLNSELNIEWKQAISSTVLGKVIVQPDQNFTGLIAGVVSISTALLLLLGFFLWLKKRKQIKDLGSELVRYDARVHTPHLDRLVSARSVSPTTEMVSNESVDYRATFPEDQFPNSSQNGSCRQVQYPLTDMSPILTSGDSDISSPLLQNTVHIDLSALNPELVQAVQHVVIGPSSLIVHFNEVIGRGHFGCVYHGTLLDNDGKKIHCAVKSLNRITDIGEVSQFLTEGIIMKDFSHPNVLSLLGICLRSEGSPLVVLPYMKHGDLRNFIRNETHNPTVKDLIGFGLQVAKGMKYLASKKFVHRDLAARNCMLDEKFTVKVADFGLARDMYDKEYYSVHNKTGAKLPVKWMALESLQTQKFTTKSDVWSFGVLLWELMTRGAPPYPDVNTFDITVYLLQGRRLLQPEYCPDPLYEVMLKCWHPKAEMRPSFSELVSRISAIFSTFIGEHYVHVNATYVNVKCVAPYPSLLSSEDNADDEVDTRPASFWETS

[6] = molecular target: T3, His-tagged human MET antigen (human, UniProt P08581 25-932); assay: SPR, Biacore 8K; antibody captured, His-tagged human MET antigen 6.25-400 nM as analyte; 1:1 Langmuir
T3 construct: Soluble antigen used as analyte in SPR; not shown: His tag
T3 sequence (P08581 25-932 limits assumed): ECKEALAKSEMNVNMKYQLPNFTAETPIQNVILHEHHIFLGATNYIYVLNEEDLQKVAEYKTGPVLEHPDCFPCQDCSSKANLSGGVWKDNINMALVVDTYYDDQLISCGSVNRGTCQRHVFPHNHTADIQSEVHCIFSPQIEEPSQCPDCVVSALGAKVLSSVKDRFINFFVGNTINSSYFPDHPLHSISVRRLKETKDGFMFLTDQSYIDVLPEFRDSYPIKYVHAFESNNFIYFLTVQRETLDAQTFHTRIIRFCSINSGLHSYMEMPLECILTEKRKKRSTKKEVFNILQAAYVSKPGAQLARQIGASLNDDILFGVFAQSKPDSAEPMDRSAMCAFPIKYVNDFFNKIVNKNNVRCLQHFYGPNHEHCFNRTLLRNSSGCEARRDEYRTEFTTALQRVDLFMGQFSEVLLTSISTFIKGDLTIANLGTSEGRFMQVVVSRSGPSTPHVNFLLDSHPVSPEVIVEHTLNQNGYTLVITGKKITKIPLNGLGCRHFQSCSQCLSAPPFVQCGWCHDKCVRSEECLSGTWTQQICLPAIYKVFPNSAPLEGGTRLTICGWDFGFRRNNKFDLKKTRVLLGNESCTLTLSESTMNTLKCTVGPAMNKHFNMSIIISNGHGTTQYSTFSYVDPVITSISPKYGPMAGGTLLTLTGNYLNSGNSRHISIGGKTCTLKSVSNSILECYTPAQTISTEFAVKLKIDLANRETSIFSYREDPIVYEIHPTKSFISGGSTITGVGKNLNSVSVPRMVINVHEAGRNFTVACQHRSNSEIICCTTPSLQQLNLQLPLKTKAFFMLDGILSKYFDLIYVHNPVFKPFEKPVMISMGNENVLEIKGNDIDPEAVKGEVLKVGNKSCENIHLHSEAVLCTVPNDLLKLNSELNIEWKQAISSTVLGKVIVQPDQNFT

Row | Binder | Kd [4] [nM] | koff [4] [s⁻¹] | kon [4] [M⁻¹ s⁻¹] | Kd [6] [nM] | koff [6] [s⁻¹] | kon [6] [M⁻¹ s⁻¹] | also measured
1 | Anti-HER3/MET bispecific antibody 2232-02 (S3-A) (bispecific antibody, human IgG1, kappa) heavy 1: not shown light 1: DIVLTQSPDSLAVSLGERATINCRADKSVSTSTYNYLHWYQQKPGQPPKLLIYLASNLASGVPDRFSGSGSGTDFTLTISSLQAEDVAVYYCQHSRDLPPTFGQGTKLEIKGGGGSGIPPKIECLPIDISIDEGKVLTVASAFTGEPTPEVTWSTGGRKIHSQEQGRFHIENTDDSTTLTIKDVQKQDGGLYTLTLRNEFGSDSATVNIHIRSI heavy 2: QVQLVQSGGGLVQPGRSLRLSCAASGFTFDDYAMHWVRQAPGKGLEWVSGISWNSGSIGYADSVKGRFTISRDNAKNSLYLQMNSLRAEDTALYYCAKEGLPGLDYWGQGTLVTVSSASTKGPSVFPLAPSSKSTSGGTAALGCLVKDYFPEPVTVSWNSGALTSGVHTFPAVLQSSGLYSLSSVVTVPSSSLGTQTYICNVNHKPSNTKVDKKVEPKSCDKTHTCPPCPAPELLGGPSVFLFPPKPKDTLMISRTPEVTCVVVDVSHEDPEVKFNWYVDGVEVHNAKTKPREEQYNSTYRVVSVLTVLHQDWLNGKEYKCKVSNKALPAPIEKTISKAKGQPREPQVCTLPPSREEMTKNQVSLSCAVKGFYPSDIAVEWESNGQPENNYKTTPPVLDSDGSFFLVSKLTVDKSRWQQGNVFSCSVMHEALHNHYTQKSLSLSPGK light 2: DIQMTQSPSSLSASIGDRATITCRASQHVGTYLNWYQQKPGKTPKLLISGAANLQSGVPSRFSGSGSGTDFTLTISSLQPEDFATYYCQQSYNTPPFSFGQGTKVEIKRTVAAPSVFIFPPSDEQLKSGTASVVCLLNNFYPREAKVQWKVDNALQSGNSQESVTEQDSKDSTYSLSSTLTLSKADYEKHKVYACEVTHQGLSSPVTKSFNRGEC | – | – | – | – | – | – | EC50 [1]: 2.64 nM; Maximum fluorescence value [1]: 1870; Minimum cell viability (%) [2]: 25.8%
2 | Anti-HER3/MET bispecific antibody P8-A (bispecific antibody, human IgG1, kappa) heavy 1: not shown light 1: NFMLTQPHSVSESPGKTVTISCTRSSGSIAFDYVQWYQQRPGSAPTTVIYEDNQRPSGVPDRFSASIDSSSNSASLTISALKTEDEADYYCQSYDNSNSWVFGGGTKLTVLGGGGSGIPPKIECLPIDISIDEGKVLTVASAFTGEPTPEVTWSTGGRKIHSQEQGRFHIENTDDSTTLTIKDVQKQDGGLYTLTLRNEFGSDSATVNIHIRSI heavy 2: QVQLVQSGGGLVQPGRSLRLSCAASGFTFDDYAMHWVRQAPGKGLEWVSGISWNSGSIGYADSVKGRFTISRDNAKNSLYLQMNSLRAEDTALYYCAKEGLPGLDYWGQGTLVTVSSASTKGPSVFPLAPSSKSTSGGTAALGCLVKDYFPEPVTVSWNSGALTSGVHTFPAVLQSSGLYSLSSVVTVPSSSLGTQTYICNVNHKPSNTKVDKKVEPKSCDKTHTCPPCPAPELLGGPSVFLFPPKPKDTLMISRTPEVTCVVVDVSHEDPEVKFNWYVDGVEVHNAKTKPREEQYNSTYRVVSVLTVLHQDWLNGKEYKCKVSNKALPAPIEKTISKAKGQPREPQVCTLPPSREEMTKNQVSLSCAVKGFYPSDIAVEWESNGQPENNYKTTPPVLDSDGSFFLVSKLTVDKSRWQQGNVFSCSVMHEALHNHYTQKSLSLSPGK light 2: DIQMTQSPSSLSASIGDRATITCRASQHVGTYLNWYQQKPGKTPKLLISGAANLQSGVPSRFSGSGSGTDFTLTISSLQPEDFATYYCQQSYNTPPFSFGQGTKVEIKRTVAAPSVFIFPPSDEQLKSGTASVVCLLNNFYPREAKVQWKVDNALQSGNSQESVTEQDSKDSTYSLSSTLTLSKADYEKHKVYACEVTHQGLSSPVTKSFNRGEC | – | – | – | – | – | – | Minimum cell viability (%) [3]: 12.1%
3 | Antibody A T94V (antibody, human IgG1, kappa, V domains shown, Differs from antibody A only by T to V at position 94 of VL) VH: QVQLVQSGGGLVQPGRSLRLSCAASGFTFDDYAMHWVRQAPGKGLEWVSGISWNSGSIGYADSVKGRFTISRDNAKNSLYLQMNSLRAEDTALYYCAKEGLPGLDYWGQGTLVTVSS VL: DIQMTQSPSSLSASIGDRATITCRASQHVGTYLNWYQQKPGKTPKLLISGAANLQSGVPSRFSGSGSGTDFTLTISSLQPEDFATYYCQQSYNVPPFSFGQGTKVEIKR | 15 | 0.0108 | 717000 | – | – | – | –
4 | Antibody A N93T (antibody, human IgG1, kappa, V domains shown, Differs from antibody A only by N to T at position 93 of VL) VH: QVQLVQSGGGLVQPGRSLRLSCAASGFTFDDYAMHWVRQAPGKGLEWVSGISWNSGSIGYADSVKGRFTISRDNAKNSLYLQMNSLRAEDTALYYCAKEGLPGLDYWGQGTLVTVSS VL: DIQMTQSPSSLSASIGDRATITCRASQHVGTYLNWYQQKPGKTPKLLISGAANLQSGVPSRFSGSGSGTDFTLTISSLQPEDFATYYCQQSYTTPPFSFGQGTKVEIKR | 97.9 | 0.0329 | 336000 | – | – | – | –
5 | Anti-MET antibody A13 (antibody, human IgG1, kappa, V domains shown) VH: QVQLVQSGAEVKKPGASVKVSCEASGYTFTSYGFSWVRQAPGQGLEWMGWISASNGNTYYAQKLQGRVTMTTDTSTSSAYMELRSLRSDDTAVYYCARVYADYADYWGQGTLVTVSS VL: DIQMTQSPSSVSASVGDRVTITCRASQGINTWLAWYQQKPGKAPKLLIYAASSLKSGVPSRFSGSGSGADFTLTISSLQPEDFATYYCQQANSFPLTFGGGTKVEIKR | – | – | – | 6.55 | 0.000614 | 93800 | Endocytosis ratio at 0 h (FACS) [5]: 0%; Endocytosis ratio at 0.5 h (FACS) [5]: 25.7%; Endocytosis ratio at 2 h (FACS) [5]: 45.7%; Endocytosis ratio at 6 h (FACS) [5]: 57.6%
6 | Antibody A13 N30T (antibody, human IgG1, kappa, V domains shown, Differs from antibody A13 only by N to T at position 30 of VL) VH: QVQLVQSGAEVKKPGASVKVSCEASGYTFTSYGFSWVRQAPGQGLEWMGWISASNGNTYYAQKLQGRVTMTTDTSTSSAYMELRSLRSDDTAVYYCARVYADYADYWGQGTLVTVSS VL: DIQMTQSPSSVSASVGDRVTITCRASQGITTWLAWYQQKPGKAPKLLIYAASSLKSGVPSRFSGSGSGADFTLTISSLQPEDFATYYCQQANSFPLTFGGGTKVEIKR | – | – | – | 17 | 0.0018 | 106000 | –
7 | Anti-MET antibody S3 (antibody, human IgG2, kappa, V domains shown) VH: QVQLVESGGGVVQPGRSLRLSCAASGFSLSNYGVHWVRQAPGKGLEWLAVIWSGGSTNYAAAFVSRLTISKDNSKNTVYLQMNSLRAEDTAVYYCARNHDNPYNYAMDYWGQGTTVTVSS VL: DIVLTQSPDSLAVSLGERATINCRADKSVSTSTYNYLHWYQQKPGQPPKLLIYLASNLASGVPDRFSGSGSGTDFTLTISSLQAEDVAVYYCQHSRDLPPTFGQGTKLEIKR | – | – | – | – | – | – | Maximum fluorescence value [1]: 77; Minimum cell viability (%) [2]: 97.3%

Now from value to binder, other results behind:

Row | Kd [4] [nM] | koff [4] [s⁻¹] | kon [4] [M⁻¹ s⁻¹] | Kd [6] [nM] | koff [6] [s⁻¹] | kon [6] [M⁻¹ s⁻¹] | Binder | also measured
8 | 51.4 | 0.0295 | 573000 | – | – | – | Antibody A N93Q (antibody, human IgG1, kappa, V domains shown, Differs from antibody A only by N to Q at position 93 of VL) VH: QVQLVQSGGGLVQPGRSLRLSCAASGFTFDDYAMHWVRQAPGKGLEWVSGISWNSGSIGYADSVKGRFTISRDNAKNSLYLQMNSLRAEDTALYYCAKEGLPGLDYWGQGTLVTVSS VL: DIQMTQSPSSLSASIGDRATITCRASQHVGTYLNWYQQKPGKTPKLLISGAANLQSGVPSRFSGSGSGTDFTLTISSLQPEDFATYYCQQSYQTPPFSFGQGTKVEIKR | –
9 | 32.6 | 0.0215 | 659000 | – | – | – | Antibody A N93S (antibody, human IgG1, kappa, V domains shown, Differs from antibody A only by N to S at position 93 of VL) VH: QVQLVQSGGGLVQPGRSLRLSCAASGFTFDDYAMHWVRQAPGKGLEWVSGISWNSGSIGYADSVKGRFTISRDNAKNSLYLQMNSLRAEDTALYYCAKEGLPGLDYWGQGTLVTVSS VL: DIQMTQSPSSLSASIGDRATITCRASQHVGTYLNWYQQKPGKTPKLLISGAANLQSGVPSRFSGSGSGTDFTLTISSLQPEDFATYYCQQSYSTPPFSFGQGTKVEIKR | –
10 | – | – | – | 7.69 | 0.000776 | 101000 | Antibody A13 N30S (antibody, human IgG1, kappa, V domains shown, Differs from antibody A13 only by N to S at position 30 of VL) VH: QVQLVQSGAEVKKPGASVKVSCEASGYTFTSYGFSWVRQAPGQGLEWMGWISASNGNTYYAQKLQGRVTMTTDTSTSSAYMELRSLRSDDTAVYYCARVYADYADYWGQGTLVTVSS VL: DIQMTQSPSSVSASVGDRVTITCRASQGISTWLAWYQQKPGKAPKLLIYAASSLKSGVPSRFSGSGSGADFTLTISSLQPEDFATYYCQQANSFPLTFGGGTKVEIKR | –
11 | – | – | – | 17.6 | 0.00146 | 83000 | Antibody A13 N30Q (antibody, human IgG1, kappa, V domains shown, Differs from antibody A13 only by N to Q at position 30 of VL) VH: QVQLVQSGAEVKKPGASVKVSCEASGYTFTSYGFSWVRQAPGQGLEWMGWISASNGNTYYAQKLQGRVTMTTDTSTSSAYMELRSLRSDDTAVYYCARVYADYADYWGQGTLVTVSS VL: DIQMTQSPSSVSASVGDRVTITCRASQGIQTWLAWYQQKPGKAPKLLIYAASSLKSGVPSRFSGSGSGADFTLTISSLQPEDFATYYCQQANSFPLTFGGGTKVEIKR | –
12 | – | – | – | 93.1 | 0.00521 | 56000 | Antibody A13 T31V (antibody, human IgG1, kappa, V domains shown, Differs from antibody A13 only by T to V at position 31 of VL) VH: QVQLVQSGAEVKKPGASVKVSCEASGYTFTSYGFSWVRQAPGQGLEWMGWISASNGNTYYAQKLQGRVTMTTDTSTSSAYMELRSLRSDDTAVYYCARVYADYADYWGQGTLVTVSS VL: DIQMTQSPSSVSASVGDRVTITCRASQGINVWLAWYQQKPGKAPKLLIYAASSLKSGVPSRFSGSGSGADFTLTISSLQPEDFATYYCQQANSFPLTFGGGTKVEIKR | –
